This note sets out measurements from publication PMC3326539 (The Journal of biological chemistry, 2005).

Series [1] concerns the target T1, ArnA C-terminal decarboxylase domain (T316M to S660) (E. coli, UniProt P77398 316-660, T316M).
T1 sequence (looked up): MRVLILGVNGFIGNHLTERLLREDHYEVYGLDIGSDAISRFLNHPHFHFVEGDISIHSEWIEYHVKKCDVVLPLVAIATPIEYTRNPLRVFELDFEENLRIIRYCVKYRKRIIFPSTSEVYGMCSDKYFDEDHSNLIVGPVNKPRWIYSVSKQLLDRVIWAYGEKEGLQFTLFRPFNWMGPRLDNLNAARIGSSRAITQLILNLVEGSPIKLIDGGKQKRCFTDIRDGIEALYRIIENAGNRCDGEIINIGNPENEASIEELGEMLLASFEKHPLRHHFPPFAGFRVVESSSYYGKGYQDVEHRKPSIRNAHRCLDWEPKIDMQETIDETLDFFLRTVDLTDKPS
Put plainly: SEC. On the technique in general: In gel filtration, larger molecules generally elute earlier.

The series “crystal structure” concerns the molecule itself. The experiment in a line: crystal structure.

B1: ArnA N-terminal formyltransferase domain (residues M1 to N305) (domain or fragment, E. coli, UniProt P77398 1-305, looked up)
chain: MKTVVFAYHDMGCLGIEALLAAGYEISAIFTHTDNPGEKAFYGSVARLAAERGIPVYAPDNVNHPLWVERIAQLSPDVIFSFYYRHLIYDEILQLAPAGAFNLHGSLLPKYRGRAPLNWVLVNGETETGVTLHRMVKRADAGAIVAQLRIAIAPDDIAITLHHKLCHAARQLLEQTLPAIKHGNILEIAQRENEATCFGRRTPDDSFLEWHKPASVLHNMVRAVADPWPGAFSYVGNQKFTVWSSRVHPHASKAQPGSVISVAPLLIACGDGALEIVTGQAGDGITMQGSQLAQTLGLVQGSRLN
By Kd is commonly meant the equilibrium constant for the complex coming apart. A lower Kd goes with tighter binding. Take B1: in series [1], the Kd is above 5 mM. For the same molecule, in the series “crystal structure”, the binding result was “binds”.
